For the series, the target named is T1, RcCas13a (Rhodobacter capsulatus, UniProt D5AUW0 1-1285).
T1 sequence: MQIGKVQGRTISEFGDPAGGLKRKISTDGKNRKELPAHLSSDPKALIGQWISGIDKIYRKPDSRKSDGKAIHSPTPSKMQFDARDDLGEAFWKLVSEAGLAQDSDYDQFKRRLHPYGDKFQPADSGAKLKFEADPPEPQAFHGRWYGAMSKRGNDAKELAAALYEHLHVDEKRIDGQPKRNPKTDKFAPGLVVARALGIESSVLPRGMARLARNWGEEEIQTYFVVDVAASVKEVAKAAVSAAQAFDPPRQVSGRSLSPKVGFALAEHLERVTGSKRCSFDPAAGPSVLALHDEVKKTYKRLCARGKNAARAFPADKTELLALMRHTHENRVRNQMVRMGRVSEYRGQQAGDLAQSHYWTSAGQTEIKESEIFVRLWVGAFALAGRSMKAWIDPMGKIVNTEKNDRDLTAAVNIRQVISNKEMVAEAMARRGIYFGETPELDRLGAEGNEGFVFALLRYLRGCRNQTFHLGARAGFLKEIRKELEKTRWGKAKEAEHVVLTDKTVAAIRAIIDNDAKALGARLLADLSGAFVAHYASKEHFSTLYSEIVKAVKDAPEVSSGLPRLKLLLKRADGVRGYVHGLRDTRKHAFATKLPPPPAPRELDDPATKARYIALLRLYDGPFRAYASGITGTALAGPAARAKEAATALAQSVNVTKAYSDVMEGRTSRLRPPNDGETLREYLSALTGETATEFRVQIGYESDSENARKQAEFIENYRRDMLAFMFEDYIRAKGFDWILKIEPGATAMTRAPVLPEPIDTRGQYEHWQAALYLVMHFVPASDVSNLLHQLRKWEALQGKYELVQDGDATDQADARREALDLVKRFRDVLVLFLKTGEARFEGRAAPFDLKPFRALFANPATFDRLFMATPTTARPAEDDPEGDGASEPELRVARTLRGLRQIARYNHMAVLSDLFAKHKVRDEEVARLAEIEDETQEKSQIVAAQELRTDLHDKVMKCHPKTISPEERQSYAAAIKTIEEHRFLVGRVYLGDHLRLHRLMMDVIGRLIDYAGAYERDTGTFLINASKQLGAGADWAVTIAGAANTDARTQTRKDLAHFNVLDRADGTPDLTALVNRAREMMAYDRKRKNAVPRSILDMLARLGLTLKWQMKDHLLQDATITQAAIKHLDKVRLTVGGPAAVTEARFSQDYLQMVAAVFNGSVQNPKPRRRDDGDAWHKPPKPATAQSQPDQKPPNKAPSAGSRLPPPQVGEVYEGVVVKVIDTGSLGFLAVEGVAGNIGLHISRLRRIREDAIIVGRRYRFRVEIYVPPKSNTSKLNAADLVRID
In words: X-ray crystal structure (2.1 A); binary complex, no target RNA; Complex co-purified by Ni affinity and SEC: 50 mM Hepes pH 8.0, 500 mM NaCl, 10% glycerol, 1 mM DTT, 4-8 C; crystallization conditions not in material. The note with it: protein: recombinant; tags: C-terminal His6, not removed for the crRNA complex; hairpin.

B1: crRNA for crystallization (structured_RNA)
RNA: GCCUCACAUCACCGCCAAGACGACGGCGGACUGAACCUUCAUUACCUCUGUUUG
On to B1, for which the binding result was “binds”.

The values are drawn from PMC8776769, “Structure and mechanism of the RNA dependent RNase Cas13a from Rhodobacter capsulatus”.
